Data on three molecules can be found in EP3211087A1 (National University Corporation Nagoya University, dated 2017).

B1: Cavin-2 (other, human, UniProt O95810 2-425, looked up)
chain: GEDAAQAEKFQHPGSDMRQEKPSSPSPMPSSTPSPSLNLGNTEEAIRDNSQVNAVTVLTLLDKLVNMLDAVQENQHKMEQRQISLEGSVKGIQNDLTKLSKYQASTSNTVSKLLEKSRKVSAHTRAVKERMDRQCAQVKRLENNHAQLLRRNHFKVLIFQEENEIPASVFVKQPVSGAVEGKEELPDENKSLEETLHTVDLSSDDDLPHDEEALEDSAEEKVEESRAEKIKRSSLKKVDSLKKAFSRQNIEKKMNKLGTKIVSVERREKIKKSLTSNHQKISSGKSSPFKVSPLTFGRKKVREGESHAENETKSEDLPSSEQMPNDQEEESFAEGHSEASLASALVEGEIAEEAAEKATSRGSNSGMDSNIDLTIVEDEEEESVALEQAQKVRYEGSYALTSEEAERSDGDPVQPAVLQVHQTS
notes: whole, on cells; Detected with anti-Cavin-2 (Abcam) in IP-WB of cell extracts
B2: human Cavin-1 (other, UniProt Q6NZI2 1-390, looked up)
chain: MEDPTLYIVERPLPGYPDAEAPEPSSAGAQAAEEPSGAGSEELIKSDQVNGVLVLSLLDKIIGAVDQIQLTQAQLEERQAEMEGAVQSIQGELSKLGKAHATTSNTVSKLLEKVRKVSVNVKTVRGSLERQAGQIKKLEVNEAELLRRRNFKVMIYQDEVKLPAKLSISKSLKESEALPEKEGEELGEGERPEEDAAALELSSDEAVEVEEVIEESRAERIKRSGLRRVDDFKKAFSKEKMEKTKVRTRENLEKTRLKTKENLEKTRHTLEKRMNKLGTRLVPAERREKLKTSRDKLRKSFTPDHVVYARSKTAVYKVPPFTFHVKKIREGQVEVLKATEMVEVGADDDEGGAERGEAGDLRRGSSPDVHALLEITEESDAVLVDKSDSD
notes: whole, on cells; Endogenous protein in cell extracts, or full-length cDNA expressed from pCMV-puro in COS-7 cells for IP-WB; also called Cavin-1-WT; pCMVpuro-Cavin-1
B3: human Caveolin 1 (CAV1) (other, UniProt Q03135 2-178, looked up)
chain: SGGKYVDSEGHLYTVPIREQGNIYKPNNKAMADELSEKQVYDAHTKEIDLVNRDPKHLNDDVVKIDFEDVIAEPEGTHSFDGIWKASFTTFTVTKYWFYRLLSALFGIPMALIWGIYFAILSFLHIWAVVPCIKSFLIEIQCISRVYSIYVHTVCDPLFEAVGKIFSNVRINLQKEI
notes: whole, on cells; Endogenous protein in cell extracts, or full-length cDNA expressed from pCMV-puro in COS-7 cells for IP-WB; also called CAV1-WT; pCMVpuro-CAV1

Assay [1] concerns the target T1, human ROR1 (receptor tyrosine kinase-like orphan receptor 1) (human, UniProt Q01973 30-937).
T1 construct: whole, on cells; also called ROR1-WT; endogenous ROR1
As to the kind of experiment: IP-WB of octyl glucoside cell extracts, NCI-H1975 and SK-LU-1.

Assay [2] has as its target T1, human ROR1 (receptor tyrosine …). As to the kind of experiment: legend of FIGS. 4(3) and (4): IP-WB, NCI-H1975 and SK-LU-1.
Assay [3] deals with B2. As to the kind of experiment: legend of FIG. 4(6): IP-WB.

T1 sequence (Q01973 30-937): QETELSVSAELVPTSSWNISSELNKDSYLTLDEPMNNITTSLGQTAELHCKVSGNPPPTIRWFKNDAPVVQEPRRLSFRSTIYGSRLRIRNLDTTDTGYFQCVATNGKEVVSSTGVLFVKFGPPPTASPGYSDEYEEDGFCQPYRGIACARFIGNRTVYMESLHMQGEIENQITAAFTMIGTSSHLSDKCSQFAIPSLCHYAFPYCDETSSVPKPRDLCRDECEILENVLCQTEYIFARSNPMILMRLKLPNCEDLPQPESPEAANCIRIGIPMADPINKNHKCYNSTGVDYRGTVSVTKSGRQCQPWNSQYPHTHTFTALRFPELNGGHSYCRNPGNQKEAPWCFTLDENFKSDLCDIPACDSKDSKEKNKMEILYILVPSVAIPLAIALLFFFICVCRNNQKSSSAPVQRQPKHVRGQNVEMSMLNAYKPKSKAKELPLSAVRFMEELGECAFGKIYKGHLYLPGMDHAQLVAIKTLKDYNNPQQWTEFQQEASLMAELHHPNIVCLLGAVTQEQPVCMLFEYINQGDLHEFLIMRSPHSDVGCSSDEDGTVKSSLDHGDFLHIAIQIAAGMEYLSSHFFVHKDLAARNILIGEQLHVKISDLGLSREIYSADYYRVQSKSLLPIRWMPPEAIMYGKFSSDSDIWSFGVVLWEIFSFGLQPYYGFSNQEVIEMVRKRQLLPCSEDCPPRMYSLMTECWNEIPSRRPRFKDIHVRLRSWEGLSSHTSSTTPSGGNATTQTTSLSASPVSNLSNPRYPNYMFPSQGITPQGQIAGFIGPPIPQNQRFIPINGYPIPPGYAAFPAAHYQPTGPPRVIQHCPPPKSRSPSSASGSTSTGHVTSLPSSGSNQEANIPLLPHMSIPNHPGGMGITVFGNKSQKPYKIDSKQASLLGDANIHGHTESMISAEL

For B1, in assay [1], the binding result is “no binding”.

As to B2, in assay [1], the binding result is listed as “binds”. For B3, the binding result in assay [2] and in assay [3] was “binds” throughout.
